Source: article PMC4942575, “Plastid-nucleus communication involves calcium-modulated MAPK signalling” (Nature Communications, 2016)

Columns and labels:
GST-MPK3 = biological target: T1, GST-MPK3 (Arabidopsis, UniProt Q39023 1-370); assay: pull-down; GST or GST-MPK3/MPK6 immobilised on glutathione beads, 4 μg His-tagged ABI4, 4 °C for 4 h; washed with 50 mM Tris-HCl pH 7.4, 100 mM NaCl, 1 mM EDTA, 0.5% Nonidet P-40; anti-His immunoblot; conditions: both partners purified
T1 construct: MPK3, Arabidopsis, full length, in PGEX5X-1; also called GST-tagged MPK3
T1 sequence (looked up): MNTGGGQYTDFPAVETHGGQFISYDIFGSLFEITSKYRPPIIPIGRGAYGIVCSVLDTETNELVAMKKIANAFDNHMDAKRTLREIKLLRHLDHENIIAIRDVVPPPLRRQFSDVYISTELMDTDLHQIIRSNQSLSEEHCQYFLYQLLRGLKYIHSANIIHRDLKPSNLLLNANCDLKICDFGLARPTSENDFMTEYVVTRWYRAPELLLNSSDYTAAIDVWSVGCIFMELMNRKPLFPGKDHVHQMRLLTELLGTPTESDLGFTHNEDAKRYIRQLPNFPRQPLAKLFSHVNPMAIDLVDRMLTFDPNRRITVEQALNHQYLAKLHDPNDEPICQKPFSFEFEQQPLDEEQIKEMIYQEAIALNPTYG

GST-MPK6 = biological target: T2, GST-MPK6 (Arabidopsis, UniProt Q39026 1-395); assay: as above; conditions: both partners purified
T2 construct: MPK6, Arabidopsis, full length, in PGEX5X-1; also called GST-tagged MPK6
T2 sequence (Q39026 whole entry): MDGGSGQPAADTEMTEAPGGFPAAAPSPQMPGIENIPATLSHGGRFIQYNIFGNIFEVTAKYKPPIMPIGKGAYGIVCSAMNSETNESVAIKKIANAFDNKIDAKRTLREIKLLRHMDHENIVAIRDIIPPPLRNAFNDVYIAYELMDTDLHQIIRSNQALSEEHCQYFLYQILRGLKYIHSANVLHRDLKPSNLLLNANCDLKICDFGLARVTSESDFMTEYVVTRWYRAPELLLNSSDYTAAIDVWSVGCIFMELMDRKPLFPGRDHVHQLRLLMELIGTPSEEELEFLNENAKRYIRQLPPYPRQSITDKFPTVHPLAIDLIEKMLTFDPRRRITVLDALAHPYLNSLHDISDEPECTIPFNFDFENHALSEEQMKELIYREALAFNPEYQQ

- binding result (GST-MPK3): binds
- binding result (GST-MPK6): binds
B1: His-tagged ABI4 (natural protein)
chain: not shown
notes: ABI4, Arabidopsis; the ABI4 cDNA was inserted into the pCold vector; The pull-down methods name only 'recombinant His-tagged ABI4 protein'; also called recombinant ABI4
